Consider 29 sequences from a protein production outcome set (Wang et al. 2014).

The data set in a line: label from the status in PepcDB records.

“LEQVQESKAESTAPSSDAVVVSKTNTSSMPVAELRSLIDDLTTQMGTAARELKFELAGRLRDEIAELKKELRGMEEIGLA”: the protein production result is “failed”.
Under “LERAKLVSIDRVIDDLSRNIDIEEVSQALAGQVIIDIRHPDAQEDQPLQVPGVEIQTLPFYALNSRFKALDDTRQYLLYCDKGVMSRLHAHHLLSEGHANVRVY” stands “failed”; under “LEYSNIPITDNNKVKLIKSGREKFEDLFEAIRGAKHHIHLEYFNFRNDSIANALFDLLGEKVKEGVKVRAMFDAFGNWSNNKPLKKRHLKAIREKGIEIVKFDPFKFPYINHAAHRDHRKIAVIDGKIGYTGGMNIADYYINGLPKIGTWRDMHIRIEGDAVNILQEIFLDIWNKTTKQNIVGEEYFPNHPERADSCNTVISIVDRTPKRNSRMLSHT”, “failed”.
Under “LFQIVEQSFGRPLSPYEIETLNQWIDVDHHDLSVIQAALDEALSQNKLSFKYIDRILLNWKKNNVKTVDDSKK” stands “not failed”; under “LFYDSEQDKEQSNPYMVLDIDKLFHVRPVTQTDVYRADAKEIPRIFQILYANEGESKKEQEFPVEPVGEKSNYICHKGHEFIPTLYHFPTNCEACMKPLWHMFKPPPALECRRCHIKCHKDHMDKKEEIIAPCKVYYDISTAKNLLLLANSTEEQQKWVSRLV”, “failed”; under “LKMLRDMTGLPHNRKCFDCDQRGPTYVNMTVGSFVCTSCSGSLRGLNPPHRVKSISMTTFTQQEIEFLQKHGNEVCKQIWLGLFDDRSSAIPDFRDPQKVKEFLQEKYEKKRWYVPPEQAK”, “not failed”.
Under “LKPERVITKNSGASLIDLGDDVALLEFHSPNNSIGFDVVQMINKAVDEVEANYKGLVIGNQGKNFCVGANLMMILMEAQDDNFFEIDMVVRQFQQAMAKIRYSQKPVVSAPFAMTLGGGTEICLPTASIQASLETYMGLVEVGVGVIPGGGGNKELYLRHLERLPEGANIDLQSIANKTFETIAMAKVSTSAHEAMENGFLSERDGVVVNGDHLLYQAKQQVIHLHDAG” stands “failed”.
Consider “LKPLSIIYNGKSGFHASDKEGVYEQIMTLFTRYDFEIQVFELNEKITFDELMEQVLLRHLNLNTSEYKGVIVAAGGDGTLNAVASRLVDTPIPMGILPLGTFNYVARVLNIPLDLLAAAEVIADGTIRSVHVATINDRIYLNNASLG”, for which the protein production entry was “failed”.
On to “LLPKYNILTEDQVQKIHENTMKILEEIGIEFEYEPALEVFRREGQKVEGKRVYLTREFVESKLKSAPAEFTLHARNPENNVVIGGDNIVFMPGYGAPFIYELDGSRRKTTLQDYENFAKLAGASKNMHLSGGTMAEPQDIPDGVRHLQMLYSSIKNSDKCFMGSAEGKERAEDSVEIAAILFGGKDVIKEKPVLVSLINSLTPLKYDERMLGALMAYAEAGQAVIIASLVMAGSTGPASLAGTLSLQNAEVLAGISLAQSINPGTPVIYGSTSALSDMRSGSLSIGSPECALFISASAQLARFYGVPSRSGGGLNDSKTVDAQAGYESMMTLMAANLTGVNFVLHTAGILQYFMAMSYEKFIMDDEIAGMLLHYMKGYTFDEDGMAFDVIEKVGPGGHFLTQKHTRKNHKREFYTPTLSDRSAYDTWAKEKLETKQRAHARWQQILANYVPPALDPEIDAKLQAFIAQRGKEVGEE”, for which the protein production result is listed as “not failed”.
For “LMLACMNMARKKTGALIAIQQGIDLTPFAHTGEVFRAEVNARLVENIFFKNSPLHDGAMVIADNSIIAAGCILPVAYNTDLNKDLGLRHRSALGLSQETDAKIIIISEERGRISFAYRGEIHQDITTDELQLLLED” the value was “failed”; for “LNIAQKGREGRKIGTAFVMGDVEEVMSRSSQLVINPYHGHKEADRDIKNPENWESVMEFAQIDGVFVLDENGIIIACGRYIEASAKDLVSKIKRGLGGRHIACASITKETKAIAVVVSESGGDITVYKDGVEVMHIPSLLF”, “failed”.
For “LNLPYDEHADAWTQVKKALAAGKRTHKPTLLVFGANWCTDCRALDKSLRNQKNTALIAKHFEVVKIDVGNFDRNLELSQAYGDPIQDGIPAVVVVNSDGKVRYTTKGGELANARKMSDQGIYDFFAKITE” the value was “not failed”; for “LNSAPTPRDVVANAPAPVQAAVAGAQEYAAQAGLNTEELAVDALYNAIKVRLAGTGLGIPPQIEAFYQANRTNFNGFYMANRGAIDFIFSM”, “not failed”.
For “LPLCDSLIIWLQTFKTASPCQDVKQLTNGVTMAQVLHQIDVAWFSESWLSRIKDDVGDNWRIKASNLKKVLHGITSYYHEFLGQQISEELIPDLNQITECADPVELGRLLQLILGCAVNCEKKQEHIKNIMTLEESVQHVVMTAIQELMSK” the value was “not failed”; for “LPSDVTEGKTVFIRNLSFDSEEEALGEVLQQFGDLKYVRVVLHPDTEHSKGCAFAQFMTQEAAQKCLAAASLEAEGGGLKLDGRQLKVDLAVTRDEAA”, “not failed”; for “LQPNMRTRVCTVINNNIAHEWTLARIASELLMSPSLLKKKLREEETSYSQLLTECRMQRALQLIVIHGFSIKRVAVSCGYHSVSYFIYVFRNYYGMTPTEYQERSAQRLSNRDSAAS”, “not failed”.
Regarding “LRLSCFIDQPTGLFNRSRLQEDIHEALASSVDYQLVVVDMITSAFLNDIVKALGYDFSQDLVTAIKERIESLLPRTCSLYKVGPTRFGFLLPGDRPPEHLFRTILEDFETPVECRGIPVQMQVGLGVVTLNRDPNEEQDWMRMVISAADDARDRDLGWA”, the protein production entry is given as “failed”.
For “LSENTTPFGSVSQHDTQVNCQLQLNAANHLIVNEQTRNCFEYFLTQYGEKSLTQIDQDIKNYFTQSLPQPARDQAQDLWQRYLKYREELGNLKEPAIAKTDIAYYRAVFTSRQMLRQRFFSATEIAGLFGSEDIYNQYTLERMAILNNSKLSEIEKAKQLKALFDQLPQDWKANLEQLSKLDDLKQLTTSIKKNGGSAQELHDMRTNLVGHDATARLEQLDVERSNWKSNVTQYLDERQTILNSNMSDTAKQNAISALRSKNFTAPQDQIRVQAFESAKDQ” the value was “failed”.
“LTEAVSLMEANIEEPLSTDDIAYYVGVSRRQLERLFKQYLGTVPSKYYLELRLNRARQLLQQTSKSIVQIGLACGFSSGPHFSSTYRNHFNITPREERAQ”: the protein production result is “not failed”.
Regarding “LTTEGGKALVDFAVKRNLQYIHFDAGWYGFEYDKVSDATTVTLDPRRNPDINALNLKEVVAYAKERGIGVILYVNQRALQQQLDEILPLYKSWGIAGIKFGFVQVGSQVWTKWMHEAIKKCADYGLMVDVHDEYRPTGFSRTYPNLM”, the protein production result is “failed”.
Under “LVPLESDLSRAADLLNAGRKVAILAGRGALEAKEALRETAELLGAPVAKALLGKAVLPDDDPLTTGGIGILGTAPSQEIMQQCDTLLIIGSTFPYIEYYPRPNTAAGIQIDHDPQRIGLRYPVEVGLVGEAGETLRMLNKRLKRKQDRSFLERAQEQTRNWRRELRAMEGDRS” stands “failed”.
For “MAAAAAGPASSQRLFQSFSDALIDGDPQAALEELTKALEQNPDDAQYYCQRAYCHILLGKYRDGIADVKKSLELNPNNCTALLRKGICEYHEKDYASALETFAEGQKLDSTDTNFDTWIKRCQEIQNGSESEVSASQRTQSKIKYDWYQTESHVIITLMIKSVQKNDVRVGFSERELSALVKIPAGEDYSLKLRLLHPIIPEQSTFKVLSTKIEIKMKKPEAVRWEKLEGQGDEPTPKQFTADVKNMYPSSSHYTRNWDKLVGEIKEEEKNEKLEGDAALNKLFQQIYSDGSDEVKRAMNKSFMESGGTVLSTNWSDVGKRKVEINPPDDMEWKQY” the value was “failed”.
Under “MAAAALREQLNALLSSMFASGLVDEQFQQLQMLQEDGGTPGFVAEVVTLFCDDADRIISELAALLDQPIVDFDKVDAYVHQLKGSSASVGAQKVKFTCMQFRQLCQDKNRDGCIMALAVVRNEFYDLRNKFQTMLQLEQQIQAQQ” stands “not failed”; under “MAAAVPQRAWTVEQLRSEQLPKKDIIKFLQEHGSDSFLAEHKLLGNIKNVAKTANKDHLVTAYNHLFETK”, “not failed”; under “MAADGIFRSIFEGCISGLDSAIERRPYHKNCGCALHDKSSGAGKNQNQRRPPSCRRHGSSESISFPIRRSWSEGNIMAMNLFSSSSSSSNLQSLSSSSSLSNLASDLPVDNAATEEPSRSNKQLRWTIDEGEDD”, “failed”.
For “MAADHTDVLIVGAGPTGLFAGFYVGMRGLSFRFVDPLPEPGGQLTALYPEKYIYDVAGFPKVYAKDLVKGLVEQVAPFNPVYSLGERAETLEREGDLFKVTTSQGNAYTAKAVIIAAGVGAFEPRRIGAPGEREFEGRGVYYAVKSKAEFQGKRVLIVGGGDSAVDWALNLLDTARRITLIHRRPQFRAHEASVKELMKAHEEGRLEVLTPYELRRVEGDERVRWAVVFHNQTQEELALEVDAVLILAGYITKLGPLANWGLALEKNKIKVDTTMATSIPGVYACGDIVTYPGKLPLIVLGFGEAAIAANHAAAYANPALKVNPGHSSEKAAPGT”, the protein production entry is given as “not failed”.
Under “MAAGAAEAAVAAVEEVGSAGQFEELLRLKAKSLLVVHFWAPWAPQCAQMNEVMAELAKELPQVSFVKLEAEGVPEVSEKYEISSVPTFLFFKNSQKIDRLDGAHAPELTKKVQRHAS” stands “not failed”; under “MAAGRHCRAPHRCQTHPRLIALGHNHRMNAQLTQELPEFPTWLNARPSTLQEHRGRALVLAFVNASSVWCAERLAELAHWQARSPGRLQVIVVQVPRFDSERLPQRSLKQLRGHGVSAPILLDKDWETWRRFGIESWPTLVLLDAYGRERQRLVGVTGDLDKALTALCEGQPPPSDADLHGVAEREPEPHLALRFPTGLAATEDRLYVADTGHHRVLECTHSGRVLRQFGHGNADLIDGGVGEAAFRRPQGLALERDQLYVADTGNHALRRINLRSGQVDTLCGTGRSGEPVEGPLASPGGSALNYPQGLAIADNQVLIAMAGDNRIWSYHLGRAALTARAGTGALEIRDGSGHLAAFAQPAGLASVQQVAYVCDGLGSSIRTMQLRGDLVQTLVGGQGTWQFGDQDGPRSTARLQFPQAIALAADSPLLWIADTGNGRLRCLRLGGGELTTVALPRRLHGPAGLAVAAGAVWIAETDAHAILRYDLASGALSDVSIDE”, “failed”; under “MAAGSLLTLLDDIATLLDDVALATKKTAGVLGDDLALNAQQVTGVSADRELPVVWAVAKGSLLNKAILVPAALLISAFAPWAILPLLMIGGAFLCFEGFEKIAHKWLHPEAGEEHDQRKQAATDASVDMVAFEKERIKGAIRTDFILSAEIIVLALGVVSARPFMDQVGVLVIVAVLITVGVYGLVAGIVKLDDLGLHLKRTASSVAQTIGSALLWLAPVLMKVLSIVGTAAMFMVGGGILVHGLPFAHHWADGVTEAASAAVGGLSMIVPTLIDAIAGIIAGAVLVLIVTLVGKVWKAARE”, “not failed”.
